Data set [1] concerns the target T1, Rif1 full-length (His6-Rif1-FLAG3) (Schizosaccharomyces pombe (fission …, UniProt Q96UP3 1-1400)).
T1 sequence: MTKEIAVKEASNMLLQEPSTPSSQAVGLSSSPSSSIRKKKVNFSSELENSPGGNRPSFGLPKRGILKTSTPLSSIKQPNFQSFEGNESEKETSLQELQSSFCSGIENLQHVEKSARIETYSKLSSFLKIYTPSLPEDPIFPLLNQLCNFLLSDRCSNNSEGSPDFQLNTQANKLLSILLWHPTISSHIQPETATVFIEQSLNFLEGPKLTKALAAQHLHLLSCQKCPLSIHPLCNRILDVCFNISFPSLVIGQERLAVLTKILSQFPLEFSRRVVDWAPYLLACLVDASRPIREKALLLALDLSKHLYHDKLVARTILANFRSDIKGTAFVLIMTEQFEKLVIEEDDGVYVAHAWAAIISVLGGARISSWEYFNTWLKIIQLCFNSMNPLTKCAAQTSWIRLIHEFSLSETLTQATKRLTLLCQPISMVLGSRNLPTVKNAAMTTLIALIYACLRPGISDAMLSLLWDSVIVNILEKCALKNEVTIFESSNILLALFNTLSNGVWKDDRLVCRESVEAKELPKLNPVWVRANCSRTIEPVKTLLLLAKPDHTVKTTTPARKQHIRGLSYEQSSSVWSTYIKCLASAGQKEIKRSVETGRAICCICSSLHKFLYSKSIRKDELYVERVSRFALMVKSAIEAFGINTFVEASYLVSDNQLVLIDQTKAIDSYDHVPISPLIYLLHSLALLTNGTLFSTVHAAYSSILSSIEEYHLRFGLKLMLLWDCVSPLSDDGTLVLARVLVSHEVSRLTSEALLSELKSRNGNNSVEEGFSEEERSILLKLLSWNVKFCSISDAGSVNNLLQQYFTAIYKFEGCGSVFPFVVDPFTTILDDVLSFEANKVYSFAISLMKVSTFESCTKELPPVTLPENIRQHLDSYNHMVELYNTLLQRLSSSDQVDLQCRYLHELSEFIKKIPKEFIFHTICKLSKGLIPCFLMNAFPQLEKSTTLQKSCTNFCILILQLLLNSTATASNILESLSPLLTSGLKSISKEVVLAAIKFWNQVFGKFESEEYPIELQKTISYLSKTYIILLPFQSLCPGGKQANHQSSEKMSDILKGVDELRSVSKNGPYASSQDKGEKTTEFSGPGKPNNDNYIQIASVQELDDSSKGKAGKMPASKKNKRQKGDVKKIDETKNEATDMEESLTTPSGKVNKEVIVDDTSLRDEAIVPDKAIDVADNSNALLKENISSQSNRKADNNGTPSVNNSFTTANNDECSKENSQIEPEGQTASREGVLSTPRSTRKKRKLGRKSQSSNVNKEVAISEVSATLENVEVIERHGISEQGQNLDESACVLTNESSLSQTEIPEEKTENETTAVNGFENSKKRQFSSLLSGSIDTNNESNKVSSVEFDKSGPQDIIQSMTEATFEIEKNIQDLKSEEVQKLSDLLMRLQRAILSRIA
Kind of data set: EMSA; KCl; EMSA with oligos heat-denatured and renatured in 50 mM KCl/40% PEG200 (Fig 5: 50 mM Tris-HCl pH 7.5 with KCl, NaCl or none); gel shift buffer 40 mM Hepes-KOH pH 7.6, 50 mM KCl, 1 mM EDTA, 10% glycerol, 0.01% Triton X-100; pull-down 30 min at room temperature; +++/++/+ = >50/>16/>6% shift at 1 nM Rif1. The settings on record: protein: recombinant, tags: N-term His6, C-term FLAG3, label: 32P.

In data set [2] the target is T1, Rif1 full-length (His6-Rif1-FLAG3). Description: EMSA; as efficient as or slightly better than AGTGn; EMSA with oligos heat-denatured and renatured in 50 mM KCl/40% PEG200 (Fig 5: 50 mM Tris-HCl pH 7.5 with KCl, NaCl or none); gel shift buffer 40 mM Hepes-KOH pH 7.6, 50 mM KCl, 1 mM EDTA, 10% glycerol, 0.01% Triton X-100; pull-down 30 min at room temperature; +++/++/+ = >50/>16/>6% shift at 1 nM Rif1. The following applies: protein: recombinant, tags: N-term His6, C-term FLAG3, label: 32P. (A gel shift assay detects complexes by their altered migration in electrophoresis.)

For data set [3] the target is unchanged. Description: EMSA; KCl; three repeats most efficient; EMSA with oligos heat-denatured and renatured in 50 mM KCl/40% PEG200 (Fig 5: 50 mM Tris-HCl pH 7.5 with KCl, NaCl or none); gel shift buffer 40 mM Hepes-KOH pH 7.6, 50 mM KCl, 1 mM EDTA, 10% glycerol, 0.01% Triton X-100; pull-down 30 min at room temperature; +++/++/+ = >50/>16/>6% shift at 1 nM Rif1. The following applies: protein: recombinant; tags: N-term His6, C-term FLAG3; label: 32P.

For the molecule TGAGGGTGGTGAGGGTGGGGA (structured_DNA) [Pu24T], the binding result in data set [1] (parallel G4) was “binds”.
Turning to AGGGTTAGGGAGGGAGGGTGG (structured_DNA) [CEB1_TTA], in data set [1] (parallel G4 in KCl), the binding result was “binds”.
Turning to TTGGGGTGGGTGGGTGGGT (structured_DNA) [T95_2T_G], the binding result in data set [1] (parallel G4) is “no binding”.
Turning to ACAGGGG (structured_DNA), the binding result in data set [2] is on record as “binds”.
GGGGTGGGAGGAGGGT (structured_DNA) [93del]: in data set [1] (parallel G4 (dimeric)), the binding result is given as “binds”.
Regarding AGTGGGGGAGTGGGGG (structured_DNA) [(AGTGGGGG)2], the binding result in data set [1] is “binds”.
For AGGGGGGAGGGAGGGT (structured_DNA) [CEB1_deltaGG], the binding result in data set [1] (parallel G4) was “binds”.
As for ACAGGGGG (structured_DNA), the binding result in data set [2] (slow-migrating multimers) is on record as “binds”.
On to AGTGGG (ssDNA), for which, in data set [1], the binding result is listed as “no binding”.
Take AGGGGGGAGGGAGGGTGG (structured_DNA) [CEB1]: the binding result in data set [1] (parallel G4 (dimeric)) was “binds”.
For ACAGGGGGACAGGGGGACAGGGGG (structured_DNA) [(ACAGGGGG)3], the binding result in data set [2] was “binds”.
Consider ATCTGAGAATCAGAT (structured_DNA) [DX2], for which, in data set [1] (hairpin), the binding result is “no binding”.
As to AGGGCTAGGGCTACTAGGGCTAGGG (structured_DNA) [Htelo4_3nt_spacer], in data set [1] (antiparallel G4), the binding result is “no binding”.
On to AGGGCTAGGGCTACTAGGGGGG (structured_DNA) [Htelo4(GGGGGG)_3nt_spacer], for which the binding result in data set [1] (hybrid G4 in KCl, antiparallel in NaCl) is “binds”.
As for TTGGGTTAGGGTTAGGGTTAGGGA (structured_DNA) [HT], in data set [1] (hybrid G4), the binding result is recorded as “no binding”.
Turning to AGGGCTAGGGCTAGGGCTAGGG (structured_DNA) [Htelo4], the binding result in data set [1] (antiparallel G4 (chair)) is on record as “no binding”.
On to AGTGGGAGTGGGAGTGGGAGTGGG (structured_DNA) [(AGTGGG)4], for which, in data set [1], the binding result is listed as “binds”.
As to AGTGGGGAGTGGGGAGTGGGGAGTGGGG (structured_DNA) [(AGTGGGG)4], the binding result in data set [1] is “binds”.
Turning to AGGGTAGGGAGGGAGGGTGG (structured_DNA) [CEB1_TA], in data set [1] (parallel G4 in KCl), the binding result is given as “binds”.

B1: Rif1-8 (70 nt) (structured_DNA)
DNA: GTGGGGGATGTGGGATAGACTATTTTAGACTTGAGACTGTGTATTCACTTAAAAGTGCTATGTGGGGGCA
On to B1, for which, in data set [1] (parallel G4), the binding result was “binds”.
TAGGGAGGGTTAGGGTTAGGG (structured_DNA) [Htelo1_A]: the binding result in data set [1] (hybrid or mix G4) is given as “no binding”.
In the case of TAGGGGGGTTAGGGTTAGGG (structured_DNA) [Htelo1_no_spacer], in data set [1] (parallel G4), the binding result is “binds”.
On to GGGTTAGGGTTAGGGTTAGGGT (structured_DNA) [Htelo3], for which, in data set [1] (hybrid G4 in K+ (CD)), the binding result is recorded as “no binding”.
In the case of TTGGGGGTGGGTGGGTGGGT (structured_DNA) [T95_2T_GG], in data set [1] (parallel G4), the binding result is reported as “no binding”.
Turning to AGGGCTAGGGCTAGGGGGG (structured_DNA) [Htelo4(GGGGGG)], the binding result in data set [1] (hybrid G4) is recorded as “binds”.
AGGGAGGGAGGGAGGGTGG (structured_DNA) [CEB1_A]: the binding result in data set [1] (parallel G4) is listed as “binds”.
Take AGTGGGGGAGTGGGGGAGTGGGGGAGTGGGGG (structured_DNA) [(AGTGGGGG)4]: in data set [1], the binding result was “binds”.
On to AGTGGGAGTGGGAGTGGG (structured_DNA) [(AGTGGG)3], for which the binding result in data set [3] is reported as “binds”.
With TAGGGTTAGGGTTAGGGGGG (structured_DNA) [Htelo1_no_spacer_2], in data set [1] (mix G4 in KCl, antiparallel in NaCl), the binding result is “binds”.
On to TTTTTTGAGAGAGAGAGAGAGAGAGAGAGA (ssDNA) [T6(GA)12], for which the binding result in data set [1] (no G4) is “no binding”.

B2: DX1 (dsDNA)
DNA 1: CGCGAATTCGCG
DNA 2: CGCGAATTCGCG
Turning to B2, in data set [1] (blunt, self-complementary), the binding result is listed as “no binding”.
Take ACAGGGGACAGGGGACAGGGG (structured_DNA) [(ACAGGGG)3]: in data set [2], the binding result is reported as “binds”.
Consider AGTGGGAGTGGG (structured_DNA) [(AGTGGG)2], for which, in data set [1], the binding result is “binds”.
The same measure, in the same setting: for AGTGGGGAGTGGGG (structured_DNA) [(AGTGGGG)2] the value was “binds”.

The values above are taken from paper PMC6565636, “Rif1 promotes association of G-quadruplex (G4) by its specific G4 binding and oligomerization activities”.
